T1: Rvs167 SH3 (RV167_YEAST), P39743
T1 chain: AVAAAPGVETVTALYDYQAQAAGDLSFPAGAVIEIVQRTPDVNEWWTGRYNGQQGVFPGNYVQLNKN

T2: Boi1 SH3 (BOI1_YEAST), P38041
T2 chain: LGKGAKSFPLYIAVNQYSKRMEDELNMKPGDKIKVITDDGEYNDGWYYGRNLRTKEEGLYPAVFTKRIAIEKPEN

T3: Boi2 SH3 (BOI2_YEAST), P39969
T3 chain: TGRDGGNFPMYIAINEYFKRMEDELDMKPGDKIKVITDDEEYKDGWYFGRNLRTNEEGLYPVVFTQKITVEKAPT

T4: Yhr016c SH3 (YSC84_YEAST), P32793
T4 chain: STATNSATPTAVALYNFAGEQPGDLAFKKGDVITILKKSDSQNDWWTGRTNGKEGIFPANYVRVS

T5: Yfr024 SH3 (LSB3_YEAST), P43603
T5 chain: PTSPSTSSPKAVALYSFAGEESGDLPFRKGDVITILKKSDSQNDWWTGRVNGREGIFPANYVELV

T6: Myo5 SH3 (MYO5_YEAST), Q04439
T6 chain: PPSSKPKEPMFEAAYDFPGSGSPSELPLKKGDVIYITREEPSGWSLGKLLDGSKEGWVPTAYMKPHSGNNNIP


Target: T1, Rvs167 SH3 (RV167_YEAST), P39743
Assay: SPOT array

normalised SPOT signal, Boehringer light units (BLU); mean over the file's lines of this peptide | Binder
12.4 | LTLTKWDPSKPISL [YKL027W 383-396]
28.6 | LVPSKAIPPLPQLD [YJL066C 98-111]
251 | MGLNKDVPHSPESL [YPL111W 171-184]
30400 | MAEFRRVPLPPMAE [YML058W 28-41]
388 | LTKIRRRPQQPLTD [YER047C 13-26]
30.8 | MDMDRNVPLAPNLN [YJR066W 21-34]
160 | LTIFKRPPKQPGHQ [YOL006C 477-490]
44.3 | LSYLKDLPFVPFLF [YNL143C 64-77]
244 | LTSVKIVPQRPISD [YAL054C 43-56]
50.5 | LTSFKGRPKPPKTL [YGR221C 455-468]
2730 | LYREREEPPLPKRI [YKL214C 53-66]
35.1 | LVGLKYEPLFPYFA [YBL076C 285-298]
46.5 | MAFIKILPNNPWPF [YGL065C 457-470]
627 | LWRPRIVPILPYIT [YDR335W 779-792]
196 | MDKFRIPPKSPNIE [YDR017C 929-942]
32.2 | MDGIKELPEFPIKK [YMR266W 737-750]

Target: T2, Boi1 SH3 (BOI1_YEAST), P38041
Assay: SPOT array

normalised SPOT signal, Boehringer light units (BLU); mean over the file's lines of this peptide | Binder
190 | LTLTKWDPSKPISL [YKL027W 383-396]
61.8 | LVPSKAIPPLPQLD [YJL066C 98-111]
146 | MGLNKDVPHSPESL [YPL111W 171-184]
59.6 | MAEFRRVPLPPMAE [YML058W 28-41]
3090 | LTKIRRRPQQPLTD [YER047C 13-26]
41.3 | MDMDRNVPLAPNLN [YJR066W 21-34]
135 | LTIFKRPPKQPGHQ [YOL006C 477-490]
62.5 | LSYLKDLPFVPFLF [YNL143C 64-77]
100 | LTSVKIVPQRPISD [YAL054C 43-56]
710 | LTSFKGRPKPPKTL [YGR221C 455-468]
5980 | LYREREEPPLPKRI [YKL214C 53-66]
50.5 | LVGLKYEPLFPYFA [YBL076C 285-298]
44.1 | MAFIKILPNNPWPF [YGL065C 457-470]
8230 | LWRPRIVPILPYIT [YDR335W 779-792]
3140 | MDKFRIPPKSPNIE [YDR017C 929-942]
25.9 | MDGIKELPEFPIKK [YMR266W 737-750]

target: Sho1 SH3 (SHO1_YEAST), P40073; assay: SPOT array
Sequence (P40073 295-366): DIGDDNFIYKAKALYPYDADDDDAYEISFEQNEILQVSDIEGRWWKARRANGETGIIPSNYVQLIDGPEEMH

normalised SPOT signal, Boehringer light units (BLU); mean over the file's lines of this peptide | Binder
27 | LTLTKWDPSKPISL [YKL027W 383-396]
102 | LVPSKAIPPLPQLD [YJL066C 98-111]
19.1 | MGLNKDVPHSPESL [YPL111W 171-184]
57.5 | MAEFRRVPLPPMAE [YML058W 28-41]
117 | LTKIRRRPQQPLTD [YER047C 13-26]
30.7 | MDMDRNVPLAPNLN [YJR066W 21-34]
93.6 | LTIFKRPPKQPGHQ [YOL006C 477-490]
22900 | LSYLKDLPFVPFLF [YNL143C 64-77]
15.3 | LTSVKIVPQRPISD [YAL054C 43-56]
189 | LTSFKGRPKPPKTL [YGR221C 455-468]
189 | LYREREEPPLPKRI [YKL214C 53-66]
76.6 | LVGLKYEPLFPYFA [YBL076C 285-298]
166 | MAFIKILPNNPWPF [YGL065C 457-470]
112 | LWRPRIVPILPYIT [YDR335W 779-792]
34.3 | MDKFRIPPKSPNIE [YDR017C 929-942]
3820 | MDGIKELPEFPIKK [YMR266W 737-750]

Target: T3, Boi2 SH3 (BOI2_YEAST), P39969
Assay: SPOT array

normalised SPOT signal, Boehringer light units (BLU); mean over the file's lines of this peptide | Binder
104 | LTLTKWDPSKPISL [YKL027W 383-396]
51.2 | LVPSKAIPPLPQLD [YJL066C 98-111]
50.6 | MGLNKDVPHSPESL [YPL111W 171-184]
64.1 | MAEFRRVPLPPMAE [YML058W 28-41]
84.8 | LTKIRRRPQQPLTD [YER047C 13-26]
31.4 | MDMDRNVPLAPNLN [YJR066W 21-34]
37.3 | LTIFKRPPKQPGHQ [YOL006C 477-490]
6.6 | LSYLKDLPFVPFLF [YNL143C 64-77]
54.6 | LTSVKIVPQRPISD [YAL054C 43-56]
12.9 | LTSFKGRPKPPKTL [YGR221C 455-468]
18.3 | LYREREEPPLPKRI [YKL214C 53-66]
108 | LVGLKYEPLFPYFA [YBL076C 285-298]
0 | MAFIKILPNNPWPF [YGL065C 457-470]
1870 | LWRPRIVPILPYIT [YDR335W 779-792]
74.3 | MDKFRIPPKSPNIE [YDR017C 929-942]
0.9 | MDGIKELPEFPIKK [YMR266W 737-750]

Target: T4, Yhr016c SH3 (YSC84_YEAST), P32793
Assay: SPOT array

normalised SPOT signal, Boehringer light units (BLU); mean over the file's lines of this peptide | Binder
21.1 | LTLTKWDPSKPISL [YKL027W 383-396]
26 | LVPSKAIPPLPQLD [YJL066C 98-111]
242 | MGLNKDVPHSPESL [YPL111W 171-184]
7260 | MAEFRRVPLPPMAE [YML058W 28-41]
71.9 | LTKIRRRPQQPLTD [YER047C 13-26]
77.5 | MDMDRNVPLAPNLN [YJR066W 21-34]
730 | LTIFKRPPKQPGHQ [YOL006C 477-490]
18.8 | LSYLKDLPFVPFLF [YNL143C 64-77]
34.4 | LTSVKIVPQRPISD [YAL054C 43-56]
23.2 | LTSFKGRPKPPKTL [YGR221C 455-468]
16200 | LYREREEPPLPKRI [YKL214C 53-66]
25.3 | LVGLKYEPLFPYFA [YBL076C 285-298]
4.3 | MAFIKILPNNPWPF [YGL065C 457-470]
331 | LWRPRIVPILPYIT [YDR335W 779-792]
473 | MDKFRIPPKSPNIE [YDR017C 929-942]
40.3 | MDGIKELPEFPIKK [YMR266W 737-750]

Target: T5, Yfr024 SH3 (LSB3_YEAST), P43603
Assay: SPOT array

normalised SPOT signal, Boehringer light units (BLU); mean over the file's lines of this peptide | Binder
65.5 | LTLTKWDPSKPISL [YKL027W 383-396]
226 | LVPSKAIPPLPQLD [YJL066C 98-111]
733 | MGLNKDVPHSPESL [YPL111W 171-184]
30500 | MAEFRRVPLPPMAE [YML058W 28-41]
937 | LTKIRRRPQQPLTD [YER047C 13-26]
475 | MDMDRNVPLAPNLN [YJR066W 21-34]
1030 | LTIFKRPPKQPGHQ [YOL006C 477-490]
125 | LSYLKDLPFVPFLF [YNL143C 64-77]
1530 | LTSVKIVPQRPISD [YAL054C 43-56]
216 | LTSFKGRPKPPKTL [YGR221C 455-468]
11800 | LYREREEPPLPKRI [YKL214C 53-66]
26.7 | LVGLKYEPLFPYFA [YBL076C 285-298]
75.2 | MAFIKILPNNPWPF [YGL065C 457-470]
1540 | LWRPRIVPILPYIT [YDR335W 779-792]
2100 | MDKFRIPPKSPNIE [YDR017C 929-942]
402 | MDGIKELPEFPIKK [YMR266W 737-750]

Target: T6, Myo5 SH3 (MYO5_YEAST), Q04439
Assay: SPOT array

normalised SPOT signal, Boehringer light units (BLU); mean over the file's lines of this peptide | Binder
231 | LTLTKWDPSKPISL [YKL027W 383-396]
558 | LVPSKAIPPLPQLD [YJL066C 98-111]
99.4 | MGLNKDVPHSPESL [YPL111W 171-184]
443 | MAEFRRVPLPPMAE [YML058W 28-41]
393 | LTKIRRRPQQPLTD [YER047C 13-26]
91.4 | MDMDRNVPLAPNLN [YJR066W 21-34]
703 | LTIFKRPPKQPGHQ [YOL006C 477-490]
213 | LSYLKDLPFVPFLF [YNL143C 64-77]
89 | LTSVKIVPQRPISD [YAL054C 43-56]
328 | LTSFKGRPKPPKTL [YGR221C 455-468]
112 | LYREREEPPLPKRI [YKL214C 53-66]
125 | LVGLKYEPLFPYFA [YBL076C 285-298]
59.9 | MAFIKILPNNPWPF [YGL065C 457-470]
1050 | LWRPRIVPILPYIT [YDR335W 779-792]
222 | MDKFRIPPKSPNIE [YDR017C 929-942]
138 | MDGIKELPEFPIKK [YMR266W 737-750]

From paper PMC314469, “Protein Interaction Networks by Proteome Peptide Scanning” (PLoS Biology, 2004)
